Measured values from the supplement of paper PMC9170038.

Test system: MS2 coat protein
Assay: apparent KD of MS2 coat protein; designed switch direction (-1 OFF switch, 1 ON switch): -1; higher = weaker reporter binding
Summary of the method: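 On Illumina chips, designed RNA switches with common flanks were made by stalled E. coli RNA polymerase. Titrations with SNAP-549-labelled MS2 coat protein, doubling from 0.7 or 1.5 nM to 3 µM, were done with no input, with 200 uM small-molecule ligand, or with an oligonucleotide input. Apparent KD is the median per design over clusters, from curve fits of normalised cluster fluorescence.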

[1] = input ligand: microRNA oligo, concentration not stated
[2] = Eterna round: R95, input ligand: FMN 200 uM
[3] = Eterna round: R95, input ligand: microRNA oligo, concentration not stated
[4] = Eterna round: R95, input ligand: none

| Sequence | apparent KD of MS2 coat protein (input ligand: FMN 200 uM) | apparent KD of MS2 coat protein (input ligand: none) | apparent KD of MS2 coat protein [1] | apparent KD of MS2 coat protein [2] | apparent KD of MS2 coat protein [3] | apparent KD of MS2 coat protein [4] |
| --- | --- | --- | --- | --- | --- | --- |
| AAUUGACGCCAAAUAUACAACAUGAGGAUCACCCAUGUACCCUAGGUACGCUCGCAGGCAAGCUUUGCUCGUCCACA [Eternabot (L1) Solution 33] (Eterna round: R97, puzzle: Sensor, turn-off variant 1) | 40.2 nM | 47.9 nM | – | – | – | – |
| AAUUUCAUUGUGAGGAUAUGCCCAAAUAAAAGCGGGCAGAAGGCACAUGAGGAUCACCCAUGUCCUGCGGUUAU [salish99_bmx4_r4_152] (Eterna round: R97, puzzle: Brourd's mod of Exclusion 4) | 471 nM | 37.5 nM | – | – | – | – |
| ACAAGAUCGGAAGGAUAUUGUACAUGAGGAUCACCCAUGUAAUAAAUGAGGAUCACGGAUGUAGUCAAGAAGGUCCGGAUAAGA [Ostracism 3 - Jieux - Exclusion NG 2] (Eterna round: R96, puzzle: Exclusion NG 2) | 36.9 nM | 43.8 nM | 41.2 nM | – | – | – |
| ACAAGCUUAAAAAUCCUAAACAUGAGGAUCACCCAUGUUCGUCUUAUAAAAAUAAAAAUAAAAAAUAAAAAAUAAAA [Sensor V2: 70] (Eterna round: R96, puzzle: Sensor v2, turn-off variant) | 49.1 nM | 51.9 nM | 228 nM | – | – | – |
| ACAAGCUUAAUCAGUAUGAACAUGAGGAUCACCCAUGUAAAAGGGAAGACAAUUGGGUUAUUUAAAGCUCGUCUUAU [JR_STOV1_Sub016] (Eterna round: R97, puzzle: Sensor, turn-off variant 1) | 57.6 nM | 67.2 nM | – | – | – | – |
| ACAAGCUUUUAGAUUUUCAACAUGAGGAUCACCCAUGUUCGUCUUAUGCUAGUGCUAGUGCGGUGUACUGGUAUUAG [JL TOV1 3.80 sellena mod] (Eterna round: R97, puzzle: Sensor, turn-off variant 1) | 16.9 nM | 16 nM | – | – | – | – |
| ACAAGCUUUUAGAUUUUCAACAUGAGGAUCACCCAUGUUCGUCUUAUGCUAGUGCUAGUGCGGUGUACUGGUAUUGG [JL TOV1 3.79 sellena mod] (Eterna round: R97, puzzle: Sensor, turn-off variant 1) | 19.2 nM | 19.5 nM | – | – | – | – |
| ACAAGCUUUUUGCUCGUCUACAUGAGGAUCACCCAUGUAGUGUGUUAGUGGUGAAGAUAGAUUGAGCGUAGUAGGUA [JR_SV3TOV1_Sub072] (puzzle: Sensor v3, turn-off variant 1) | – | – | – | 102 nM | 79.5 nM | 109 nM |
| ACAAGCUUUUUGUUCGUCUUAUAAAAUCCUAAGAGGAAAACAUGAGGAUCACCCAUGUAACAAAGACGGACUCAUGU [Sesor Array 12 - Jieux - Sensor v3, turn-off variant 2] (Eterna round: R96, puzzle: Sensor v3, turn-off variant 2) | 11.5 nM | – | 99.1 nM | – | – | – |
| ACAAGCUUUUUGUUCGUCUUAUAAAAUCCUAAGAGGAAAACAUGAGGAUCACCCAUGUAACAAAGACGGACUCAUGU [Sesor Array 12 - Jieux - Sensor v3, turn-off variant 2] (puzzle: Sensor v3, turn-off variant 2) | – | – | – | 13.4 nM | 125 nM | 10.8 nM |
| ACACAUGAGGAUCACCCAUGUCGGGUCAUAUCCUUCGAGGGCUAGGAUAUCGGGACUACGAAGCCCGAGAAGGAGCACUCGUUA [Ceorsobi] (Eterna round: R96, puzzle: Exclusion NG 3) | 251 nM | 105 nM | 66.3 nM | – | – | – |
| ACACUACAUGAGGAUCACCCAUGUCAGGAUAUCGAUAUCACAACUCAUCAACCUCACUCGAGAAGGGACACAUA [wifeneedsadrink] (puzzle: Exclusion 1) | – | – | – | – | 22.1 nM | – |
| ACACUGCGAGGAUAUACAUGAGGAUCACCCAUGUGUCGGCAGGUACGGUAGCACUAGUGUAGAAGGCGCAUUAG [EX3 #40] (Eterna round: R97, puzzle: Exclusion 3) | 17 nM | 15.4 nM | – | – | – | – |
| ACAGCGUGAGGAUAUACAUGAGGAUCACCCAUGUAUGGCAGGUUAUCCUGUCGUAUGUGUAGAAGGCACGCUGU [Exclusion 3 - Oddities v.3 ( A small slide from ms2 to fmn)] (puzzle: Exclusion 3) | – | – | – | – | 50.8 nM | – |
| ACAGUUCUGCAAGGAUAUCGUCCUAGUUUGUUUCGAGAAGGUGCUUUAGUUUAUUCCUUUUGUUUACAUGAGGAUCACCCAUGU [JR_ExcNG1_Sub050] (Eterna round: R96, puzzle: Exclusion NG 1) | – | – | 18 nM | – | – | – |
| ACAUCACAGCUAGGAUAUAGAUGACAUGAGGAUCACCCAUGUUGUCCCAUGUUGACGAAAACCGACUAGAAGGAGCUACAGAUG [Ex NG2 #5] (Eterna round: R96, puzzle: Exclusion NG 2) | 59.3 nM | 50.1 nM | 52.6 nM | – | – | – |
| ACAUCACAGCUAGGAUAUAUAUGACAUGAGGAUCACCCAUGUUGUCCCAUGUUGACGAAAACCGAAUAGAAGGAGCCACAGAUG [Ex NG2 #3] (Eterna round: R96, puzzle: Exclusion NG 2) | 91.3 nM | 67.2 nM | 61.5 nM | – | – | – |
| ACAUGACUAGGAUAUACAUGAGGAUCACCCAUGUGACCACAAACAUGCUAUAUGGGCAGUAGAAGGAGUUGGAA [Eternabot (L1) Solution 86] (Eterna round: R97, puzzle: Exclusion 3) | 82.9 nM | 75.9 nM | – | – | – | – |
| ACAUGAGGAUCACCCAUGUAAUCAUAAUGGCUGAUGUAGAGUCAGGAUAUGUGUGGCUUACUAUCGCAGAAGGGACAAGACUGG [Deportation 33 - Jieux - Exclusion NG 3] (Eterna round: R96, puzzle: Exclusion NG 3) | 26.3 nM | 25.9 nM | 14.2 nM | – | – | – |
| ACAUGAGGAUCACCCAUGUAAUCAUGAUGGCUGAUGUAGACUCAGGAUAUGUGUGGCUUUCUAUCACAGAAGGGAGAAGACUGG [Deportation 37 - Jieux - Exclusion NG 3] (Eterna round: R96, puzzle: Exclusion NG 3) | 59.7 nM | 129 nM | 116 nM | – | – | – |
| ACAUGAGGAUCACCCAUGUACAGGGUUUAGUUUCAUCGUUUGAAGGAUAUACACUGUUAGUUGUCGUAGAAGGUCACUGAUUGG [JR_ExcNG3_Sub010] (Eterna round: R96, puzzle: Exclusion NG 3) | 93.9 nM | 130 nM | 93.3 nM | – | – | – |
| ACAUGAGGAUCACCCAUGUCCGGCUGGUCCGUCUCGGCUGUCGAGGAUAUAGCUCGGUAUCCGCGCUAGAAGGCGGGAGCCGGA [Aenatbe mod 84] (Eterna round: R96, puzzle: Exclusion NG 3) | 45.3 nM | 44.4 nM | 29.1 nM | – | – | – |
| ACAUGAGGAUCACCCAUGUCCGGCUGGUCUGUCUCGGCUGUCGAGGAUAUAGCACGGUAUCCGCGCUAGAAGGCGGGAGCCGGG [Aenatbe mod 88] (Eterna round: R96, puzzle: Exclusion NG 3) | 237 nM | 193 nM | 127 nM | – | – | – |
| ACAUGAGGAUCACCCAUGUCGAGUACAUGAGGAUCACCCAUGUAGGAUAUGGUUCGCUUUGCGUGCUAGAAGGAUAUAUGUUGA [salish99_ExNG3_r04_511] (Eterna round: R96, puzzle: Exclusion NG 3) | 780 nM | 457 nM | 297 nM | – | – | – |
| ACAUGAGGAUCACCCAUGUGAAAAGAAUGGCUGACACAGAGAUAGGAUAUGUGUGCAUAUCUAACACAGAAGGGUCAUGACUGG [Deportation 80 - Jieux - Exclusion NG 3] (Eterna round: R96, puzzle: Exclusion NG 3) | 41.6 nM | 40.1 nM | 34.2 nM | – | – | – |
| ACAUGAGGAUCACCCAUGUGAAAGAAAUGGCUGACUUUGAGCUAGGAUAUUUGUGCAUAUCAAACAAAGAAGGAGCAUUACUGG [Deportation 99 - Jieux - Exclusion NG 3] (Eterna round: R96, puzzle: Exclusion NG 3) | 20.4 nM | 20.6 nM | 16.9 nM | – | – | – |
| ACAUGAGGAUCACCCAUGUGCACGUAAUGGCUCAUGUAGAGUGAGGAUAUGCGUGGCGAACGAGCGCAGAAGGCACAAGACUGG [Deportation 17 - Jieux - Exclusion NG 3] (Eterna round: R96, puzzle: Exclusion NG 3) | 106 nM | 72.6 nM | 56.4 nM | – | – | – |
| ACAUGAGGAUCACCCAUGUUUGGCUGGUCCUCUCCGGCUGUCGAGGAUAUAGUACGGUAUCCGCGCUAGAAGGUGAGGGCCGGC [Aenatbe] (Eterna round: R96, puzzle: Exclusion NG 3) | 16.4 nM | 17.1 nM | 10.1 nM | – | – | – |
| ACAUGAGGAUCACCCAUGUUUGGCUGGUCGUCUCCGGCUGUCGAGGAUAUAGUACGGUAUCCGCGCUAGAAGGUGAGGGCCGGC [Raxeorer] (Eterna round: R96, puzzle: Exclusion NG 3) | 11.5 nM | 19.3 nM | 14.6 nM | – | – | – |
| ACAUGAGGAUCACCCAUGUUUGGCUGGUUCUCUCCGGCUGUUGAGGAUAUAGUCCGGUAUCCGCGCUAGAAGGUGAGGGCUGGC [Aenatbe mod 7] (Eterna round: R96, puzzle: Exclusion NG 3) | 13.5 nM | 24.2 nM | 15.8 nM | – | – | – |
